Reference: patent US20230158141A1 (YAFEI SHANGHAI BIOLOG MEDICINE SCIENCE AND TECHNOLOGY, published 2023)

What was measured:
PD-1 [1] = target: PD-1 (UniProt Q15116 25-167, limits assumed); assay: ELISA, OD mutant/OD WT; A=90-110%
Target sequence in this assay (Q15116 25-167 limits assumed): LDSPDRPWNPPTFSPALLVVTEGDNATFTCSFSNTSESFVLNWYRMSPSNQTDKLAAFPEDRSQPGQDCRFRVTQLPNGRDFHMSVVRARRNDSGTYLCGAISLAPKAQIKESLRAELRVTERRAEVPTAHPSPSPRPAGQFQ

PD-1 [2] = target: PD-1 (UniProt Q15116 25-167, limits assumed); assay: ELISA; S9 on the Cys
Target sequence in this assay (Q15116 25-167 limits assumed): as above

Binder	binding activity (OD after mutation/OD wild type) (PD-1 [1]) [%]	binding activity, % of wild type (PD-1 [2]) [%]
anti-PD-1 antibody 2 light chain A34C (antibody, human IgG4 S228P, kappa, V domains shown) VH: QVQLVESGGGVVQPGRSLRLDCKASGITFSNSGMHWVRQAPGKGLEWVAVIWYDGSKRYYADSVKGRFTISRDNSKNTLFLQMNSLRAEDTAVYYCATNDDYWGQGTLVTVSS VL: EIVLTQSPATLSLSPGERATLSCRASQSVSSYLCWYQQKPGQAPRLLIYDASNRATGIPARFSGSGSGTDFTLTISSLEPEDFAVYYCQQSSNWPRTFGQGTKVEIKR	90 to 110	
anti-PD-1 antibody 2 light chain S91C (antibody, human IgG4 S228P, kappa, V domains shown) VH: QVQLVESGGGVVQPGRSLRLDCKASGITFSNSGMHWVRQAPGKGLEWVAVIWYDGSKRYYADSVKGRFTISRDNSKNTLFLQMNSLRAEDTAVYYCATNDDYWGQGTLVTVSS VL: EIVLTQSPATLSLSPGERATLSCRASQSVSSYLAWYQQKPGQAPRLLIYDASNRATGIPARFSGSGSGTDFTLTISSLEPEDFAVYYCQQCSNWPRTFGQGTKVEIKR	90 to 110	
anti-PD-1 antibody 2 light chain S92C (antibody, human IgG4 S228P, kappa, V domains shown) VH: QVQLVESGGGVVQPGRSLRLDCKASGITFSNSGMHWVRQAPGKGLEWVAVIWYDGSKRYYADSVKGRFTISRDNSKNTLFLQMNSLRAEDTAVYYCATNDDYWGQGTLVTVSS VL: EIVLTQSPATLSLSPGERATLSCRASQSVSSYLAWYQQKPGQAPRLLIYDASNRATGIPARFSGSGSGTDFTLTISSLEPEDFAVYYCQQSCNWPRTFGQGTKVEIKR	90 to 110	
anti-PD-1 antibody 2 light chain S30C (antibody, human IgG4 S228P, kappa, V domains shown) VH: QVQLVESGGGVVQPGRSLRLDCKASGITFSNSGMHWVRQAPGKGLEWVAVIWYDGSKRYYADSVKGRFTISRDNSKNTLFLQMNSLRAEDTAVYYCATNDDYWGQGTLVTVSS VL: EIVLTQSPATLSLSPGERATLSCRASQSVCSYLAWYQQKPGQAPRLLIYDASNRATGIPARFSGSGSGTDFTLTISSLEPEDFAVYYCQQSSNWPRTFGQGTKVEIKR	90 to 110	
anti-PD-1 antibody 2 light chain S31C (antibody, human IgG4 S228P, kappa, V domains shown) VH: QVQLVESGGGVVQPGRSLRLDCKASGITFSNSGMHWVRQAPGKGLEWVAVIWYDGSKRYYADSVKGRFTISRDNSKNTLFLQMNSLRAEDTAVYYCATNDDYWGQGTLVTVSS VL: EIVLTQSPATLSLSPGERATLSCRASQSVSCYLAWYQQKPGQAPRLLIYDASNRATGIPARFSGSGSGTDFTLTISSLEPEDFAVYYCQQSSNWPRTFGQGTKVEIKR	90 to 110	
anti-PD-1 antibody 2 HC Thr69Cys (antibody, human IgG4 S228P, kappa, V domains shown, arm on Cys69 as named in each row) VH: QVQLVESGGGVVQPGRSLRLDCKASGITFSNSGMHWVRQAPGKGLEWVAVIWYDGSKRYYADSVKGRFCISRDNSKNTLFLQMNSLRAEDTAVYYCATNDDYWGQGTLVTVSS VL: EIVLTQSPATLSLSPGERATLSCRASQSVSSYLAWYQQKPGQAPRLLIYDASNRATGIPARFSGSGSGTDFTLTISSLEPEDFAVYYCQQSSNWPRTFGQGTKVEIKR		78.6
anti-PD-1 antibody 2 light chain S52C (antibody, human IgG4 S228P, kappa, V domains shown) VH: QVQLVESGGGVVQPGRSLRLDCKASGITFSNSGMHWVRQAPGKGLEWVAVIWYDGSKRYYADSVKGRFTISRDNSKNTLFLQMNSLRAEDTAVYYCATNDDYWGQGTLVTVSS VL: EIVLTQSPATLSLSPGERATLSCRASQSVSSYLAWYQQKPGQAPRLLIYDACNRATGIPARFSGSGSGTDFTLTISSLEPEDFAVYYCQQSSNWPRTFGQGTKVEIKR	90 to 110	
anti-PD-1 antibody 2 light chain S26C (antibody, human IgG4 S228P, kappa, V domains shown) VH: QVQLVESGGGVVQPGRSLRLDCKASGITFSNSGMHWVRQAPGKGLEWVAVIWYDGSKRYYADSVKGRFTISRDNSKNTLFLQMNSLRAEDTAVYYCATNDDYWGQGTLVTVSS VL: EIVLTQSPATLSLSPGERATLSCRACQSVSSYLAWYQQKPGQAPRLLIYDASNRATGIPARFSGSGSGTDFTLTISSLEPEDFAVYYCQQSSNWPRTFGQGTKVEIKR	90 to 110	
anti-PD-1 antibody 2 light chain S28C (antibody, human IgG4 S228P, kappa, V domains shown) VH: QVQLVESGGGVVQPGRSLRLDCKASGITFSNSGMHWVRQAPGKGLEWVAVIWYDGSKRYYADSVKGRFTISRDNSKNTLFLQMNSLRAEDTAVYYCATNDDYWGQGTLVTVSS VL: EIVLTQSPATLSLSPGERATLSCRASQCVSSYLAWYQQKPGQAPRLLIYDASNRATGIPARFSGSGSGTDFTLTISSLEPEDFAVYYCQQSSNWPRTFGQGTKVEIKR	90 to 110	
anti-PD-1 antibody 2 light chain G57C (antibody, human IgG4 S228P, kappa, V domains shown) VH: QVQLVESGGGVVQPGRSLRLDCKASGITFSNSGMHWVRQAPGKGLEWVAVIWYDGSKRYYADSVKGRFTISRDNSKNTLFLQMNSLRAEDTAVYYCATNDDYWGQGTLVTVSS VL: EIVLTQSPATLSLSPGERATLSCRASQSVSSYLAWYQQKPGQAPRLLIYDASNRATCIPARFSGSGSGTDFTLTISSLEPEDFAVYYCQQSSNWPRTFGQGTKVEIKR	90 to 110	
anti-PD-1 antibody 2 HC Gly10Cys (antibody, human IgG4 S228P, kappa, V domains shown, arm on Cys10 as named in each row) VH: QVQLVESGGCVVQPGRSLRLDCKASGITFSNSGMHWVRQAPGKGLEWVAVIWYDGSKRYYADSVKGRFTISRDNSKNTLFLQMNSLRAEDTAVYYCATNDDYWGQGTLVTVSS VL: EIVLTQSPATLSLSPGERATLSCRASQSVSSYLAWYQQKPGQAPRLLIYDASNRATGIPARFSGSGSGTDFTLTISSLEPEDFAVYYCQQSSNWPRTFGQGTKVEIKR		69.3
anti-PD-1 antibody 1 light chain G28C (antibody, human IgG4 S228P, kappa, V domains shown, also called PD-1-Ab1-Gly28Cys; PD1 Ab-C28) VH: QVQLVQSGVEVKKPGASVKVSCKASGYTFTNYYMYWVRQAPGQGLEWMGGINPSNGGTNFNEKFKNRVTLTTDSSTTTAYMELKSLQFDDTAVYYCARRDYRFDMGFDYWGQGTTVTVSS VL: EIVLTQSPATLSLSPGERATLSCRASKCVSTSGYSYLHWYQQKPGQAPRLLIYLASYLESGVPARFSGSGSGTDFTLTISSLEPEDFAVYYCQHSRDLPLTFGGGTKVEIKR	90 to 110	
anti-PD-1 antibody 1 light chain S95C (antibody, human IgG4 S228P, kappa, V domains shown) VH: QVQLVQSGVEVKKPGASVKVSCKASGYTFTNYYMYWVRQAPGQGLEWMGGINPSNGGTNFNEKFKNRVTLTTDSSTTTAYMELKSLQFDDTAVYYCARRDYRFDMGFDYWGQGTTVTVSS VL: EIVLTQSPATLSLSPGERATLSCRASKGVSTSGYSYLHWYQQKPGQAPRLLIYLASYLESGVPARFSGSGSGTDFTLTISSLEPEDFAVYYCQHCRDLPLTFGGGTKVEIKR	90 to 110	
anti-PD-1 antibody 1 light chain G61C (antibody, human IgG4 S228P, kappa, V domains shown) VH: QVQLVQSGVEVKKPGASVKVSCKASGYTFTNYYMYWVRQAPGQGLEWMGGINPSNGGTNFNEKFKNRVTLTTDSSTTTAYMELKSLQFDDTAVYYCARRDYRFDMGFDYWGQGTTVTVSS VL: EIVLTQSPATLSLSPGERATLSCRASKGVSTSGYSYLHWYQQKPGQAPRLLIYLASYLESCVPARFSGSGSGTDFTLTISSLEPEDFAVYYCQHSRDLPLTFGGGTKVEIKR	90 to 110	
anti-PD-1 antibody 1 light chain S56C (antibody, human IgG4 S228P, kappa, V domains shown) VH: QVQLVQSGVEVKKPGASVKVSCKASGYTFTNYYMYWVRQAPGQGLEWMGGINPSNGGTNFNEKFKNRVTLTTDSSTTTAYMELKSLQFDDTAVYYCARRDYRFDMGFDYWGQGTTVTVSS VL: EIVLTQSPATLSLSPGERATLSCRASKGVSTSGYSYLHWYQQKPGQAPRLLIYLACYLESGVPARFSGSGSGTDFTLTISSLEPEDFAVYYCQHSRDLPLTFGGGTKVEIKR	90 to 110	
anti-PD-1 antibody 1 light chain S60C (antibody, human IgG4 S228P, kappa, V domains shown) VH: QVQLVQSGVEVKKPGASVKVSCKASGYTFTNYYMYWVRQAPGQGLEWMGGINPSNGGTNFNEKFKNRVTLTTDSSTTTAYMELKSLQFDDTAVYYCARRDYRFDMGFDYWGQGTTVTVSS VL: EIVLTQSPATLSLSPGERATLSCRASKGVSTSGYSYLHWYQQKPGQAPRLLIYLASYLECGVPARFSGSGSGTDFTLTISSLEPEDFAVYYCQHSRDLPLTFGGGTKVEIKR	90 to 110	
anti-PD-1 antibody 1 light chain S26C (antibody, human IgG4 S228P, kappa, V domains shown) VH: QVQLVQSGVEVKKPGASVKVSCKASGYTFTNYYMYWVRQAPGQGLEWMGGINPSNGGTNFNEKFKNRVTLTTDSSTTTAYMELKSLQFDDTAVYYCARRDYRFDMGFDYWGQGTTVTVSS VL: EIVLTQSPATLSLSPGERATLSCRACKGVSTSGYSYLHWYQQKPGQAPRLLIYLASYLESGVPARFSGSGSGTDFTLTISSLEPEDFAVYYCQHSRDLPLTFGGGTKVEIKR	90 to 110	
anti-PD-1 antibody 1 light chain G33C (antibody, human IgG4 S228P, kappa, V domains shown) VH: QVQLVQSGVEVKKPGASVKVSCKASGYTFTNYYMYWVRQAPGQGLEWMGGINPSNGGTNFNEKFKNRVTLTTDSSTTTAYMELKSLQFDDTAVYYCARRDYRFDMGFDYWGQGTTVTVSS VL: EIVLTQSPATLSLSPGERATLSCRASKGVSTSCYSYLHWYQQKPGQAPRLLIYLASYLESGVPARFSGSGSGTDFTLTISSLEPEDFAVYYCQHSRDLPLTFGGGTKVEIKR	90 to 110	
anti-PD-1 antibody 1 light chain S32C (antibody, human IgG4 S228P, kappa, V domains shown) VH: QVQLVQSGVEVKKPGASVKVSCKASGYTFTNYYMYWVRQAPGQGLEWMGGINPSNGGTNFNEKFKNRVTLTTDSSTTTAYMELKSLQFDDTAVYYCARRDYRFDMGFDYWGQGTTVTVSS VL: EIVLTQSPATLSLSPGERATLSCRASKGVSTCGYSYLHWYQQKPGQAPRLLIYLASYLESGVPARFSGSGSGTDFTLTISSLEPEDFAVYYCQHSRDLPLTFGGGTKVEIKR	90 to 110	
anti-PD-1 antibody 1 light chain S30C (antibody, human IgG4 S228P, kappa, V domains shown) VH: QVQLVQSGVEVKKPGASVKVSCKASGYTFTNYYMYWVRQAPGQGLEWMGGINPSNGGTNFNEKFKNRVTLTTDSSTTTAYMELKSLQFDDTAVYYCARRDYRFDMGFDYWGQGTTVTVSS VL: EIVLTQSPATLSLSPGERATLSCRASKGVCTSGYSYLHWYQQKPGQAPRLLIYLASYLESGVPARFSGSGSGTDFTLTISSLEPEDFAVYYCQHSRDLPLTFGGGTKVEIKR	90 to 110	
anti-PD-1 antibody 1 light chain S35C (antibody, human IgG4 S228P, kappa, V domains shown) VH: QVQLVQSGVEVKKPGASVKVSCKASGYTFTNYYMYWVRQAPGQGLEWMGGINPSNGGTNFNEKFKNRVTLTTDSSTTTAYMELKSLQFDDTAVYYCARRDYRFDMGFDYWGQGTTVTVSS VL: EIVLTQSPATLSLSPGERATLSCRASKGVSTSGYCYLHWYQQKPGQAPRLLIYLASYLESGVPARFSGSGSGTDFTLTISSLEPEDFAVYYCQHSRDLPLTFGGGTKVEIKR	90 to 110	
